Test results taken from PMC5548801, “Characterization of C-terminal structure of MinC and its implication in evolution of bacterial cell division” (Scientific Reports, 2017).

Experiments:
[1] = target: MBP-EcMinC-Aahelix3 (E. coli | A. aeolicus) (UniProt P18196); test: SEC-MALS; MALLS and SEC (Fig. S4)
[2] = target: the molecule itself; test: crystal structure; hanging-drop vapor diffusion at 20 °C, 0.1 M Tris-HCl pH 7.2, 0.44 M sodium/potassium tartrate; 3.0 Å; dimer in the asymmetric unit
[3] = target: the molecule itself; test: SEC-MALS; MALLS and SEC (Fig. S4)

Molecule “MBP-EcMinC-Aahelix3 (from UniProt P18196 1-231; O67034 82-201)” has a stoichiometry N [1] of 2.

B1: C-terminal domain of MinC from Escherichia coli (EcMinCCTD) (domain or fragment, E. coli)
chain: PVTKTRLIDTPVRSGQRIYAPQCDLIVTSHVSAGAELIADGNIHVYGMMRGRALAGASGDRETQIFCTNLMAELVSIAGEYWLSDQIPAEFYGKAARLQLVENALTVQPLN
notes: MinC, E. coli K12; C-terminal domain, a degradation fragment of ~13 kD of full-length MinC-6xHis; residues 122-231 are named for the superposition with TmMinCCTD; Crystals grew from full-length MinC-6xHis (pET22b-MinC) that was degraded over 3-6 weeks; source: E. coli BL21(DE3), full-length MinC-6xHis purified (Ni-agarose, SEC); degraded to the C-terminal domain during crystallization; not shown: …
B1: binds [2].

B2: MBP-EcMinC (natural protein, E. coli, UniProt P18196 1-231, looked up)
chain: MSNTPIELKGSSFTLSVVHLHEAEPKVIHQALEDKIAQAPAFLKHAPVVLNVSALEDPVNWSAMHKAVSATGLRVIGVSGCKDAQLKAEIEKMGLPILTEGKEKAPRPAPTPQAPAQNTTPVTKTRLIDTPVRSGQRIYAPQCDLIVTSHVSAGAELIADGNIHVYGMMRGRALAGASGDRETQIFCTNLMAELVSIAGEYWLSDQIPAEFYGKAARLQLVENALTVQPLN
notes: called full-length EcMinC; Modified pET-28b with MBP in place of the N-terminal His-tag; source: E. coli BL21(DE3), purified (Ni-agarose, SEC); not shown: MBP, N-terminal, kept
With B2 the “stoichiometry N” value [3] was 2.
